Reference: patent publication US20230212270A1 (UNIVERSITY OF PITTSBURGH OF THE COMMONWEALTH SYSTEM OF …, published 2023)

Columns and labels:
[1] = target: T1, Human serum albumin (HSA) (human, UniProt P02768 25-609); test: affinity as cited in the structural example (SPR)
T1 construct: In SPR the HSA was immobilised on a CM5 chip

[2] = target: T1, Human serum albumin (HSA); test: SPR (Biacore 3000), HSA immobilised on CM5 chip, Nb as analyte
Description: Nb Affinity measurement by surface plasmon resonance (SPR) Surface plasmon resonance (SPR, Biacore 3000 system, GE Healthcare) was used to measure Nb affinities. Briefly, a protein antigen such as GST, OMP25 PDZ domain or human serum albumin was immobilized to the flow channels of an activated CM5 sensor-chip. Protein analytes were diluted to 10-30 µg/ml in 10 mM sodium acetate, pH 4.5, and injected into the SPR system at 5 µl/min for 420 s. The surface was then blocked by 1 M ethanolamine-HCl (pH 8.5). For each Nb analyte, a series of dilution spanning approximately 1,000 fold was injected in duplicate, with HBS-EP+ running buffer (GE-Healthcare) containing 2 mM DTT, at a flow rate of 20- 30 µl/min for 120- 180 s, followed by a dissociation time of 5 - 20 mins based on dissociation rate. Between each injection, the sensor chip surface was regenerated with low pH buffer containing 10 mM glycine-HCl (pH 1.5- 2.5) at a flow rate of 40-50 µl/min for 30 s, or high pH buffer of 20-40 mM NaOH (pH 12- 13) at 40-50 µl/min for 30 s. Binding sensorgrams for each Nb were processed and analyzed using BIA evaluation by fitting with 1:1 Langmuir model or 1:1 Langmuir model with mass transfer.

T1 sequence (P02768 25-609 limits assumed, form in doubt): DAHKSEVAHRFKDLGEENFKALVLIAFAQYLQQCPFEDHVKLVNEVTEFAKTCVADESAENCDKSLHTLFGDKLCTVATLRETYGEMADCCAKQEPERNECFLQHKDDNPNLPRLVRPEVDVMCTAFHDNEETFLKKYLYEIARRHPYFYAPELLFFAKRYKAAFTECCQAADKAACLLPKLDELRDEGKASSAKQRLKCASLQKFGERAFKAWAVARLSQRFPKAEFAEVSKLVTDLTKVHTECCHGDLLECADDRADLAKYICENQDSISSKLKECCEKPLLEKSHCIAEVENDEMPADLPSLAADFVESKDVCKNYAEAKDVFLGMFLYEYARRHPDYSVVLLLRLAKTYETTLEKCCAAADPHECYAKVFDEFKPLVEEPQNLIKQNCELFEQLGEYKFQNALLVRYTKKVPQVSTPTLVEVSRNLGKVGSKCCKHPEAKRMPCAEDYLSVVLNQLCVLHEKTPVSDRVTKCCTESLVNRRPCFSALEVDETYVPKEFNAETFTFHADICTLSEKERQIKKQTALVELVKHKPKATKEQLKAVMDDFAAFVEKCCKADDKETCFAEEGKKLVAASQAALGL

B1: Nb80 (VHH)
VHH: EVQLVESGGGLVQAGGSLRLSCTASGRTFTPYTMGWFRQAPGKEREFVASILWSGNNRDYADSVKGRFAISRDNAKNTAYLQMTSLKPEDTAVYYCAAGDGLGFYRSVNQYDYWGQGTQVTVS
notes: His-tagged nanobody from E. coli
Q: Which Kd [1] does the source give for B1 here?
A: 0.16 nM

Q: What about the Kd [2] of the same binder?
A: 0.166 nM

Q: And the koff [2]?
A: 2.75e-05 s⁻¹

Q: What about the kon [2] of the same binder?
A: 166000 M⁻¹ s⁻¹
